Measurements published in the nanobody polyreactivity screen of Harvey et al. (2022).

experiment: yeast display, Sf9 membrane polyspecificity reagent, FACS + sequencing; frameworks hold sequencing errors
Procedure, shortened: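 In a synthetic yeast display library (Saccharomyces cerevisiae BJ5465), nanobody expression was induced with galactose for 36–48 hours. FACS gates were set low and high (top ~1%) using anti-HA fluorescence for expression and streptavidin fluorescence for binding of the Sf9 membrane reagent. Each polyreactivity label is drawn from the gate of origin.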

Sequence | polyreactivity (PSR sort gate)
QVQLVESGGGLVQAGGSLRFSCAASGRIIEQNAMGWYIQAPGKERELVATITRRGGRTYYADSVKGRFTISRDNAKNTVYLQMNSLKPEDTAVYYCNQVSYARGYDYWGQGTQVTVSS | high polyreactivity
QVQLVESGGGLVQAGGSLRFSCAASGRTFRYYAMRWYRQAPGKERELVADISSTGRTYYADSVKGRFTISRDNAKNTVYLQMNSLNPEDSAVYYCAADYYSTYRTIYYYWGQGTQVSVSS | low polyreactivity
QVQLVESGGGLVQAGGSLRFSCAASGSIFDIYGMGWYRQAPGKESELVASISGGAGSTNYADSVKGRFTISRDYAKNTVYLQMNSLKPEDTAVYYCAAVCADPTEYDYWGQGTQVTVSS | low polyreactivity
QVQLVESGGGLVQAGGSLRFSCAASGSTFGFNAMGWYRQAPGKERELLPLFWSGGSTYYADSVNGRFTISRDNAKNSVYLQMNSLKPDDTAVYYCNKDSTPITRYDYWGQGTQVTVSS | low polyreactivity
QVQLVESGGGLVQAGGSLRFSCAASGSTFIGYDMGWYRQEPGKERELVAAISYSDGTYYAESVKGRFTISRDNAKNTVYLQMNSLNPEDTAVYYCAADSLYYRYDYWGQGTQVTVSS | low polyreactivity
QVQLVESGGGLVQAGGSLRFSCAASGSTFVYYGMGWDRQAPGKERELVAAITDIGDSTNYADSVKGRFTISRDNAKNTVYLQMNSLKPEDTAVYYCAASGRSVPYYGSPRNDYWGQGTQVTVSS | low polyreactivity
QVQLVESGGGLVQAGGSLRFSCAASGSTTYRYAMGWYRQAPGKERELVAAISSRGGSTYYADSVKGRFTISRDNAKNTVYLQMNSLKPEDTAVYYCAVKDRYSFRYDYWGQGTQVTVSS | high polyreactivity
QVQLVESGGGLVQAGGSLRFSCAASGYIFYKYAMGWYRHAPGKERELVAAIRRSGGSTYYADSVKGRFTISRDNAKNTVYLQMNSLKPEDTAVYYCAARYFRGSYPMGYWGQGTQVTVSS | high polyreactivity
QVQLVESGGGLVQAGGSLRFSCAAYGFIFTQYAMGCYRRAPGKERELVAAISWNGGRTYYADSVNGRFTISRDNEKNTVYLQMNSLKPEDTAVYYCAARIYLSKSFNYWGQGTQVTVSS | high polyreactivity
QVQLVESGGGLVQAGGSLRFSSAASGSIFGTYVMGWYRQAPGKERELVAAISWSGGSTYYADSVKGRFTISRDNAKNTVYLQMNSLKPEDTAVYYCAADSIRFEYEYWGQGTQVTVSS | high polyreactivity
QVQLVESGGGLVQAGGSLRFSWAASGFIFRSNAMGWYRQAPGKERELVAAISKSGGSTYYADSVKGRFTISRDTAKKTVYLQMNSLKPEDTAVYYCFVDYYPYDYWGQGTQVTVSS | low polyreactivity
QVQLVESGGGLVQAGGSLRIICAASGRTFDRYAMRGYRQAPGKERELVAASTRRGTTTYYADSVKVRFSISRDYAKNTVYLQMYSLKPEDTAVYYCAAKRGCVSRPDYGANDESWGQGTQVTVSS | high polyreactivity
QVQLVESGGGLVQAGGSLRIICAASGSIFARNAMGWYRQAPGKERELVASITWSGASTYDADSVKGRFTISRDNAMNTVYLQMNSLKPEDTAVYYCAATDQILSLDYSSYEYLGQGTQVTVSS | low polyreactivity
QVQLVESGGGLVQAGGSLRISCAASGCTFSFNAMGWYRPAPGKERELVAAITTADSTYYADSVKGRFTISRDNAKNTGYFQMNSLKPEDTAVYYCAADAYWEYDYWGQGTQVTVSS | low polyreactivity
QVQLVESGGGLVQAGGSLRISCAASGFICPQNTMGWYRQAPGTERELVAAITSCGSTYYADSVKGRFTISRDNGKNTVYLQMNSLKPEDTAVYYCAARPYGNWTYGYWGQGTQVTVSS | low polyreactivity
QVQLVESGGGLVQAGGSLRISCAASGFIFDGYAMGWYRQAPGKERELVAAITYSGGSTYYADSLKGRFTISRDNAKNTVYLQMNRLKPEDTAVYYCNAEYSSFSVVQKDSDMDYWGQGTQVTVSS | low polyreactivity
